According to article PMC9314101:

Biological target: PtrMYB074 (Populus trichocarpa, UniProt B9IEX5 1-371)
Assay: EMSA

B1: PtrbHLH186 promoter W-box probe (dsDNA)
DNA 1: CTATAGTTTGACTGTA
DNA 2: TACAGTCAAACTATAG
binding result: no binding
